Values quoted from earlier work as cited in PMC2921697.

Legend:
[1] = biological target: Barnase (denatured) (Bacillus amyloliquefaciens) (UniProt P00648); assay: H/D exchange NMR
[2] = biological target: prion protein (denatured recombinant) (UniProt P04156)

GroEL (from UniProt P0A6F5)
Kd [1]: 50 nM

Hsp60 (from UniProt P10809)
Kd [2]: 1.5 nM

SecB (from UniProt P0AG86)
Kd [1]: 50 nM
